The target of assay [1] is T1, hemagglutinin-tagged wild type human type 2 CCK receptor (human, UniProt P32239 1-447).
T1 sequence (looked up): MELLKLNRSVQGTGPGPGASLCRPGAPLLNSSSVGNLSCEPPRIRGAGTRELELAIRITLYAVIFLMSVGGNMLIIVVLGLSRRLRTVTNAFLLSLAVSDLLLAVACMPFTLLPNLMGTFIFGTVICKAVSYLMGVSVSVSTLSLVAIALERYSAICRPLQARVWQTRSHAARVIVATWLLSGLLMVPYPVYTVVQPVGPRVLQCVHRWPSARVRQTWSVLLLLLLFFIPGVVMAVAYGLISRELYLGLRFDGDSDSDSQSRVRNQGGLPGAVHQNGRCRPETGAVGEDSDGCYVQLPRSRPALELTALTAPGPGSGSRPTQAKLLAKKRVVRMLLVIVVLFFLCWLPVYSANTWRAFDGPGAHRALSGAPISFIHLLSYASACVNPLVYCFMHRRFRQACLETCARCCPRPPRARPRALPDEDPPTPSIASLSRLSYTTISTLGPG
As to the kind of experiment: radioligand binding.

Assay [2] concerns the target T1, hemagglutinin-tagged wild type human …. Description: cell-based or functional assay.

This note sets out measurements from paper PMC3739435 (Peptides, 2013).

Square brackets hold non-standard residues; d marks the D form. Ends that are not written are not given here. * marks the point of attachment. Benzoyl(4-benzoyl) = O=C(c1ccccc1)c1ccc(C(=O)*)cc1; Bpa = N[C@@H](Cc1ccc(C(=O)c2ccccc2)cc1)C(=O)O; Phe(NO2) = nitro-phenylalanine (NO2-Phe); Desaminotyrosyl = O=C(CCc1ccc(O)cc1)*; Nle = CCCC[C@H](N)C(=O)O

In assay [1], [Desaminotyrosyl]GDY[Nle]GWK(Benzoyl(4-benzoyl))DF (ends and bridges not checked) [(des-amino-Tyr)-Gly-[(Nle28,(BzBz)Lys31)CCK-26-33]] registered an IC50 of over 1000 nM.

Take [Desaminotyrosyl]G[Phe(NO2)]Y[Nle]GW[Nle]DF (ends and bridges not checked) [(des-amino-Tyr)-Gly-[(NO2-Phe26,Nle28,Nle31)CCK-26-33]]: the “intracellular calcium responses in CHO-CCK2R cells, EC50” value in assay [2] was over 1000 nM.

In assay [1], [Desaminotyrosyl]GDY[Nle]G[Bpa][Nle]DF (ends and bridges not checked) [(des-amino-Tyr)-Gly-[(Nle28,Bpa30,Nle31)CCK-26-33]] registered an IC50 of over 1000 nM.

For the molecule [Desaminotyrosyl]GDY[Nle]GW[Nle][Bpa]F (ends and bridges not checked) [(des-amino-Tyr)-Gly-[(Nle28,Nle31,Bpa32)CCK-26-33]], the “intracellular calcium responses in CHO-CCK2R cells, EC50” value in assay [2] is over 1000 nM. The half-inhibitory concentration (IC50) in assay [1] is over 1000 nM.

One may read the IC50 as the concentration that inhibits the measured activity by half.
